1 molecule from patent publication US20250019454A1 (BIOCYTOGEN PHARMACEUTICALS BEIJING, published 2025) can be followed below.

Test [1] concerns the target T1, ΔCRD4-TNFR2 protein (with CRD4 deletion), on CHO-S cells (human, UniProt P20333 23-461).
T1 construct: also called CHO-SΔCRD4-TNFR2; TNFR2 lacking CRD4
T1 sequence: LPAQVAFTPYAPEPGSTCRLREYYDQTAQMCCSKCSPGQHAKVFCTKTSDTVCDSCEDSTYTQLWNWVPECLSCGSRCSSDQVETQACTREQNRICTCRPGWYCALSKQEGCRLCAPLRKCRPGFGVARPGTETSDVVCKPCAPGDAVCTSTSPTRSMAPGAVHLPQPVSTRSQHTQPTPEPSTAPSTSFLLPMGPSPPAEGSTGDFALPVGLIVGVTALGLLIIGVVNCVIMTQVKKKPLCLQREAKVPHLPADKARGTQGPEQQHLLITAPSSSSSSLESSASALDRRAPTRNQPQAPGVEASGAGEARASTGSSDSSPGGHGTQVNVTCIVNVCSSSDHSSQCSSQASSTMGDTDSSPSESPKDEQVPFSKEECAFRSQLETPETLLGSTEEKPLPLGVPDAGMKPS
Briefly: FACS on CHO-S cells with ΔCRD4-TNFR2. From the text:
TNFR2 has four cysteine rich domains (CRD). In another experiment, FACS was used to detect the binding of anti-hTNFR2 antibodies to TNFR2 proteins with different structural domains. Secondary antibody (Alexa Fluor® 647 AffiniPure F(ab′) 2 Fragment Goat Anti-Human IgG, Fcγ fragment specific, Jackson ImmunoResearch Laboratories, Inc., Cat #: 151524) was used. The fluorescence-labeled secondary antibody can attach to the Fc region of the anti-hTNFR2 antibodies so that the anti-hTNFR2 antibodies that are bound to the ΔCRD cells can be detected by FACS. Specifically, ΔCRD1-TNFR2 protein (with CRD1 deleteion), ΔCRD2-TNFR2 protein (with CRD2 deleteion), ΔCRD3-TNFR2 protein (with CRD3 deleteion) or ΔCRD4-TNFR2 protein (with CRD4 deleteion) were expressed in CHO-S cells respectively, and then the binding between the cells and different anti-hTNFR2 antibodies was detected.

The target in test [2] is T2, human TNFR2 (expressed on cells) (human, UniProt P20333 23-461).
T2 sequence: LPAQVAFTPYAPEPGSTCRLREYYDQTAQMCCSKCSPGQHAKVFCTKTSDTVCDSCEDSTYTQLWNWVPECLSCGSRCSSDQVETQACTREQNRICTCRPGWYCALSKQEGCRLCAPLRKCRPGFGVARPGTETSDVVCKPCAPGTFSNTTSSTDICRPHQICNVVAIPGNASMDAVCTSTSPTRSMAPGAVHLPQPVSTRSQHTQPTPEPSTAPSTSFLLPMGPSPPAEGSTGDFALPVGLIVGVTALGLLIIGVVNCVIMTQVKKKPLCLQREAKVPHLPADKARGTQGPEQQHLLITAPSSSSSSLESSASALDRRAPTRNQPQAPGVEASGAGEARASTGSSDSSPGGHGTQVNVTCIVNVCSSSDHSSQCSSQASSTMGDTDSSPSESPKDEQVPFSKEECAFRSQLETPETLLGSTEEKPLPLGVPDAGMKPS
Briefly: cell-based or functional assay.

B1: BC-1C3-IgG1 (antibody, V domains shown)
VH: QVQLVESGGGVVHPGKSLRLSCAASGFTFNIYGMHWVRQAPGKGLEWVALISYDGNDKYFADSVKGRFTISRDNSKNTLYLQMNSLRAEDTAVYYCAKAVDTAVVTFFDYWGQGTLVTVSS
VL: EIVMTQSPVTLSVSPGERATLSCRASQSVSSNLAWYQQKPGQAPRLLIYSASTRATGIPARFSGSGSGTEFTLTISSLQSEDLAVYYCQQYSNWPFTFGPGTKVDIK
notes: Human VH/VL joined to the human IgG1 subtype
Regarding B1, the binding result in test [1] is reported as “no binding”. Also, the EC50 (read off the curve) (in general, the concentration at which the effect is half-maximal) in test [2] is about 0.4 µg/mL.
